Laboratory results: US20140072613A1, “Compositions and Methods for Treating Cutaneous Scarring” (priority 2012, published 2014)

Legend:
Assay in all cases: biochemical
Assay type in all cases: biochemical
266 human kinases [1] = molecular target: 266 human kinases (Homo sapiens, UniProt P08631); conditions: 100 μM
From the text: (§1) Specifically, in these assays, a positively charged substrate is phosphorylated with a radiolabeled phosphate group from an ATP if the kinase is not inhibited by an inhibitor peptide. The positively charged substrate then is attracted to a negatively charged filter membrane, quantified with a scintillation counter, and compared to a 100% activity control.

266 human kinases [2] = molecular target: 266 human kinases (Homo sapiens, UniProt P15735); conditions: PhKγ2(h); 100 μM
From the text: as §1

266 human kinases [3] = molecular target: 266 human kinases (Homo sapiens, UniProt P17948); conditions: Flt1(h); 100 μM
From the text: as §1

266 human kinases [4] = molecular target: 266 human kinases (Homo sapiens, UniProt P42685); conditions: PTK5(h); 100 μM
From the text: as §1

266 human kinases [5] = molecular target: 266 human kinases (Homo sapiens, UniProt Q00534); conditions: CDK6/cyclinD3(h); 100 μM
From the text: as §1

266 human kinases [6] = molecular target: T1, 266 human kinases (Homo sapiens, UniProt Q06418); conditions: Rse(h); 100 μM
T1 sequence (Q06418 41-890): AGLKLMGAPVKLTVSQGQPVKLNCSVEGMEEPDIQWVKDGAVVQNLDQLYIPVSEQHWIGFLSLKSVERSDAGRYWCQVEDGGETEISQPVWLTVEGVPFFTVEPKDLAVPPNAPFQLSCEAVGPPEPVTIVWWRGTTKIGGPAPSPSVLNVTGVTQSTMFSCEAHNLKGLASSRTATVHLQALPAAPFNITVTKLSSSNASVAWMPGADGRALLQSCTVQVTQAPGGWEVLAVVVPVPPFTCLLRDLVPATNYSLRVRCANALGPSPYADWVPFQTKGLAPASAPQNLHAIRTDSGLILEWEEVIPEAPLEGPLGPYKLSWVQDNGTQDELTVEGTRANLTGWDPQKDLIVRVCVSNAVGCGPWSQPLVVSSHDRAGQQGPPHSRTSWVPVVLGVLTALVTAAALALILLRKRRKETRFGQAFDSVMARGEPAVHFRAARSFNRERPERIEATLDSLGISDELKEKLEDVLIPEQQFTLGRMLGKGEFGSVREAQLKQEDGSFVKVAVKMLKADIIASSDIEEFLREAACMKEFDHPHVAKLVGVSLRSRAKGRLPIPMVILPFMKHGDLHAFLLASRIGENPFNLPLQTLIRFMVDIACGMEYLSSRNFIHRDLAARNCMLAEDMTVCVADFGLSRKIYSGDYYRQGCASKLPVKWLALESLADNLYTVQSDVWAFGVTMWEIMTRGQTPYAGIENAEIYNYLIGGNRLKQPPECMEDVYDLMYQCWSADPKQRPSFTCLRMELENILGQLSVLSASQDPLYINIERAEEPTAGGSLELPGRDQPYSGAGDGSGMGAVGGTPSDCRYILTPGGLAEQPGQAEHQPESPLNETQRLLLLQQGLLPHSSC
From the text: as §1

266 human kinases [7] = molecular target: 266 human kinases (Homo sapiens, UniProt Q13557); conditions: CaMKIIδ(h); 100 μM
From the text: as §1

266 human kinases [8] = molecular target: 266 human kinases (Homo sapiens, UniProt Q15375); conditions: EphA7(h); 100 μM
From the text: as §1

266 human kinases [9] = molecular target: T2, 266 human kinases (Homo sapiens, UniProt Q6PHR2); conditions: ULK3(h); 100 μM
T2 sequence (Q6PHR2 1-472): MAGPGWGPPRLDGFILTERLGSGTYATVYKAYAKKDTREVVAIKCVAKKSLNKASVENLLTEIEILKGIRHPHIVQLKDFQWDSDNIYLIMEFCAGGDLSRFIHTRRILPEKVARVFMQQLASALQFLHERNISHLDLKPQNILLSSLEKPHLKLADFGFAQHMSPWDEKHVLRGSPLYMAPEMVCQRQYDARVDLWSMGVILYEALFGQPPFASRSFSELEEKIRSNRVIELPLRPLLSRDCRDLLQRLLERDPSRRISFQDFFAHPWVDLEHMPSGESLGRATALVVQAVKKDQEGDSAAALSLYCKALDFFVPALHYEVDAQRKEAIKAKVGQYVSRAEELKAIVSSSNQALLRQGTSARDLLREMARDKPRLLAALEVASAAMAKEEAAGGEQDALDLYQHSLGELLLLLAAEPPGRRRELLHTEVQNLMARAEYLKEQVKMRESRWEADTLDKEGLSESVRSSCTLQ
From the text: as §1

266 human kinases [10] = molecular target: T3, 266 human kinases (Homo sapiens, UniProt Q8TF76); conditions: Haspin(h); 100 μM
T3 sequence (Q8TF76 1-798): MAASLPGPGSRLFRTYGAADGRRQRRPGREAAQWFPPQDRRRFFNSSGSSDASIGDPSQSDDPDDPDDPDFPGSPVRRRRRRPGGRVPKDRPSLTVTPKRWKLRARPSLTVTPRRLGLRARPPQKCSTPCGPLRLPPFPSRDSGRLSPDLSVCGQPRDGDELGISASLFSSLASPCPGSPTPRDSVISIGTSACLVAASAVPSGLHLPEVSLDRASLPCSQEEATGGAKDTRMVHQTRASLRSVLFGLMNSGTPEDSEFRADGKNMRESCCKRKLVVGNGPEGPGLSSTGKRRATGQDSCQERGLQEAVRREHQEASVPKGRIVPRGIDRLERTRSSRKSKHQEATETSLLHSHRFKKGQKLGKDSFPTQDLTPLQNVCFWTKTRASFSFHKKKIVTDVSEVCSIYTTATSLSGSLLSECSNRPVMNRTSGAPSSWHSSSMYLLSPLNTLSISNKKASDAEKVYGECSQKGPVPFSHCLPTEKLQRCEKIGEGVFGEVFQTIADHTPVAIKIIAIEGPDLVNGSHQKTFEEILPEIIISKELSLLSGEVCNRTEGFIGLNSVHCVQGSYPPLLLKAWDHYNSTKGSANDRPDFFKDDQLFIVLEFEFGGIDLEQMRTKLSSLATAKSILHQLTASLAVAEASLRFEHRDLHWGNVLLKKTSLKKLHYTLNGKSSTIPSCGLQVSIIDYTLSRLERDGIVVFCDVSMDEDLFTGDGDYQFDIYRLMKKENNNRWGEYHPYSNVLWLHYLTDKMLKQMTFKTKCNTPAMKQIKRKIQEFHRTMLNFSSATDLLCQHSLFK
From the text: as §1

266 human kinases [11] = molecular target: 266 human kinases (Homo sapiens, UniProt Q96GD4); conditions: Aurora-B(h); 100 μM
From the text: as §1

Chain of 266 human kinases (Homo sapiens, UniProt P08631) (P08631 whole entry): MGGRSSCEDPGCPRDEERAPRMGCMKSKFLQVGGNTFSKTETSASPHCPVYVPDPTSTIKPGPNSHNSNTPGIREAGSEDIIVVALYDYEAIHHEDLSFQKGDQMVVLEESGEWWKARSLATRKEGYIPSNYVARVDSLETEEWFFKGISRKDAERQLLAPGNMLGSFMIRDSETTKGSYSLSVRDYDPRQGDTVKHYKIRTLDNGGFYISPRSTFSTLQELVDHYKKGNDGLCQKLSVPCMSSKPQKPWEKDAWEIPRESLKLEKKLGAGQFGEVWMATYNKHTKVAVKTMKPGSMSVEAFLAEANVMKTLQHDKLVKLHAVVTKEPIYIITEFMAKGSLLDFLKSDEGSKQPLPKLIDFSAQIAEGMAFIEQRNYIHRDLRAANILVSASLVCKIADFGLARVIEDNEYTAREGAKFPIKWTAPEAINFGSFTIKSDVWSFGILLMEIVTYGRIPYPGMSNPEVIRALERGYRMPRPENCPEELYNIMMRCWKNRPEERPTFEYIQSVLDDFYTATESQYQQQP
Chain of 266 human kinases (Homo sapiens, UniProt Q15375) (Q15375 28-998): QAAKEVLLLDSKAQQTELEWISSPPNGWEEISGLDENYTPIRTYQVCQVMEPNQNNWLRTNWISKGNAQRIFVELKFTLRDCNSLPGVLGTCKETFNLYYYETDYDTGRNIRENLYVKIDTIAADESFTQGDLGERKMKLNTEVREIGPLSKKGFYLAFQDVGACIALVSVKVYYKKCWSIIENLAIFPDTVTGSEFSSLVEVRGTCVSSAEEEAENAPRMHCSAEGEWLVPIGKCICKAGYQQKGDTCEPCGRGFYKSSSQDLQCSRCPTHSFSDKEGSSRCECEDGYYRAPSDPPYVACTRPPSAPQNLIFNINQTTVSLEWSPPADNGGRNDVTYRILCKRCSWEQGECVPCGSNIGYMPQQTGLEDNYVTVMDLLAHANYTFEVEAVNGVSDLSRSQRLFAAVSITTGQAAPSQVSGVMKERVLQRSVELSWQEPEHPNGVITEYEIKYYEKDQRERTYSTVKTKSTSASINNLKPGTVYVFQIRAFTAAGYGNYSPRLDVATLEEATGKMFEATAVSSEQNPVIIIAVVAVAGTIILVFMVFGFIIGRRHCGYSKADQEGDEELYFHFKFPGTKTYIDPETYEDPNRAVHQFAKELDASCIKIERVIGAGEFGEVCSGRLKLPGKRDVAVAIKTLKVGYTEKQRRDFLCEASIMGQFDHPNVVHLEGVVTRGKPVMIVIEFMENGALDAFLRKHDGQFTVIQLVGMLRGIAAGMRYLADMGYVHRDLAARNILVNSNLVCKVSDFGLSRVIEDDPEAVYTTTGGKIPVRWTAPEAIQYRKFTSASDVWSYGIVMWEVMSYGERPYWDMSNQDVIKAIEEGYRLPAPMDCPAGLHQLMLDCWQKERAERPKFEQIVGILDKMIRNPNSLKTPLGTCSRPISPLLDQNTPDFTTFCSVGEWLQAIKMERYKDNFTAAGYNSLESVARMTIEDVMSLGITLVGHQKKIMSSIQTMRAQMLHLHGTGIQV
Chain of 266 human kinases (Homo sapiens, UniProt P17948) (P17948 27-1338): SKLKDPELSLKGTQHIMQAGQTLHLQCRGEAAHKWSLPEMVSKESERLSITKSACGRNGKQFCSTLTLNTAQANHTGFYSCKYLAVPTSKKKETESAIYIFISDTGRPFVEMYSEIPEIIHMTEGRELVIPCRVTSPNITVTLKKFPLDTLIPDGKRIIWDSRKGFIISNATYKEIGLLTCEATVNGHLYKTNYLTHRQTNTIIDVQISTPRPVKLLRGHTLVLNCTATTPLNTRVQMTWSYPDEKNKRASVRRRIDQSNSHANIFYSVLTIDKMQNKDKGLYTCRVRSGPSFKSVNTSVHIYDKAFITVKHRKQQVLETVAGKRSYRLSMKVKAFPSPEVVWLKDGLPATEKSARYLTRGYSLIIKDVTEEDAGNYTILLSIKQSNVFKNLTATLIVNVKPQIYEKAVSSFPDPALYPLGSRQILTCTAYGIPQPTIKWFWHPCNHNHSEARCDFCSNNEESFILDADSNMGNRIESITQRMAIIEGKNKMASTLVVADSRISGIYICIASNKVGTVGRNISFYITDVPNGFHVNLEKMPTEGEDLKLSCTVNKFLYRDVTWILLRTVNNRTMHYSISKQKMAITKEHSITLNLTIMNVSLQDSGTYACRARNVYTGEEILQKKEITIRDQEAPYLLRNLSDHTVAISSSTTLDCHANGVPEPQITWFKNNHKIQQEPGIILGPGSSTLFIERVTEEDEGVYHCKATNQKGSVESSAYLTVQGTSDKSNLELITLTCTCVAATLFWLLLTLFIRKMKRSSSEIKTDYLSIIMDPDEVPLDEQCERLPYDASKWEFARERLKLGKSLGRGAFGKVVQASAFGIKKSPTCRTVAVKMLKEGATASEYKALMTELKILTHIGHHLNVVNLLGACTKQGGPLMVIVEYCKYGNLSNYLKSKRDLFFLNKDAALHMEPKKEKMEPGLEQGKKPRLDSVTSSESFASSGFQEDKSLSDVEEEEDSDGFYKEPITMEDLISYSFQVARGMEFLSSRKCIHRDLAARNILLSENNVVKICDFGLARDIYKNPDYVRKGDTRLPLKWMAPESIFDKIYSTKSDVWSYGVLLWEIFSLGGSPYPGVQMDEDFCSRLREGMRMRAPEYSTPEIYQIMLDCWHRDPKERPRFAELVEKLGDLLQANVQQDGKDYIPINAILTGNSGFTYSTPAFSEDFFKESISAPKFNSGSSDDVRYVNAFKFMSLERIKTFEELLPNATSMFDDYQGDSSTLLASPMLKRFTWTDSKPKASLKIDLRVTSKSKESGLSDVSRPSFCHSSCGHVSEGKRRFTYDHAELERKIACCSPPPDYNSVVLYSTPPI
Chain of 266 human kinases (Homo sapiens, UniProt Q96GD4) (Q96GD4 whole entry): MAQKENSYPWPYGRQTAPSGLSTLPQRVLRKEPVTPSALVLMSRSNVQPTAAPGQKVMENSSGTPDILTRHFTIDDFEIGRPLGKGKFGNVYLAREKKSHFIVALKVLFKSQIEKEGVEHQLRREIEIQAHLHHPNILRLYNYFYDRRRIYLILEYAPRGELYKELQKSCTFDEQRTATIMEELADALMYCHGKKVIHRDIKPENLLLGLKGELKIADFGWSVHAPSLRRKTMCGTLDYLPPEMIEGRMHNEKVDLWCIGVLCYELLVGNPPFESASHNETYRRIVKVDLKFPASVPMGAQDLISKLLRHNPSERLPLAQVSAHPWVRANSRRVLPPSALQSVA
Chain of 266 human kinases (Homo sapiens, UniProt Q13557) (Q13557 whole entry): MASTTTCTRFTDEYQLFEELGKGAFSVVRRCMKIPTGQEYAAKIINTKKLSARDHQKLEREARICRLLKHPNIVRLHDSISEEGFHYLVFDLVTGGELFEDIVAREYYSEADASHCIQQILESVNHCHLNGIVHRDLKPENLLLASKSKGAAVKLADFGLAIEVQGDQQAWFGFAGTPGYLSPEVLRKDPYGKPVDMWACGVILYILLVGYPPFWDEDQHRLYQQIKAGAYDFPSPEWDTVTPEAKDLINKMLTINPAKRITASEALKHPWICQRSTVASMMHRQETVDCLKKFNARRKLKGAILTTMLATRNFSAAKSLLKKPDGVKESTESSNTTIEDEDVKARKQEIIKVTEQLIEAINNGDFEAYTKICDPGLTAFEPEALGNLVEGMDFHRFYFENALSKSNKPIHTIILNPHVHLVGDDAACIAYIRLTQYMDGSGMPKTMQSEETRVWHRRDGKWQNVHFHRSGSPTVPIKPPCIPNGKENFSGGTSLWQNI
Chain of 266 human kinases (Homo sapiens, UniProt Q00534) (Q00534 whole entry): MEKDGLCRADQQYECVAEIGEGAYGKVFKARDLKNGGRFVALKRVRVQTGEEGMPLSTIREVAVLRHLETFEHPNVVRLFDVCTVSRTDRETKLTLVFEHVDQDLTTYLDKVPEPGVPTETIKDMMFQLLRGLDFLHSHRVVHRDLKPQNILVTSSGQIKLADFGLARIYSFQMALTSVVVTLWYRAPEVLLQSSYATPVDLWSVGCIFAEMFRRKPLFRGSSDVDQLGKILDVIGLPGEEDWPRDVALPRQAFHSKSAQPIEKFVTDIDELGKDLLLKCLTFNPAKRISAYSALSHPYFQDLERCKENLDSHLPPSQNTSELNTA
Chain of 266 human kinases (Homo sapiens, UniProt P42685) (P42685 whole entry): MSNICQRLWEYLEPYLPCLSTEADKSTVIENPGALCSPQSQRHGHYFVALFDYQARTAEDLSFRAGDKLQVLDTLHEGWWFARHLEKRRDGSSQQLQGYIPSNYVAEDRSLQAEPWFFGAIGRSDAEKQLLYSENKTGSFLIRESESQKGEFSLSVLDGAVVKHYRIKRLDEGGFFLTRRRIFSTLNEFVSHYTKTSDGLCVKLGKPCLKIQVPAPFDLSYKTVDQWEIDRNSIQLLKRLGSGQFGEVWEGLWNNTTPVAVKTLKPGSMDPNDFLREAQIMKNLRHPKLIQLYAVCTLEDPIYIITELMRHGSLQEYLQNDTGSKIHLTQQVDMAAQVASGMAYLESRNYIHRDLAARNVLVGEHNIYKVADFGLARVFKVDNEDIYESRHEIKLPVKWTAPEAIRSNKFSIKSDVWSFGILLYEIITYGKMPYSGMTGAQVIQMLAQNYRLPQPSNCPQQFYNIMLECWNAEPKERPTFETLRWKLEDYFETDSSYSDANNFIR
Chain of 266 human kinases (Homo sapiens, UniProt P15735) (P15735 whole entry): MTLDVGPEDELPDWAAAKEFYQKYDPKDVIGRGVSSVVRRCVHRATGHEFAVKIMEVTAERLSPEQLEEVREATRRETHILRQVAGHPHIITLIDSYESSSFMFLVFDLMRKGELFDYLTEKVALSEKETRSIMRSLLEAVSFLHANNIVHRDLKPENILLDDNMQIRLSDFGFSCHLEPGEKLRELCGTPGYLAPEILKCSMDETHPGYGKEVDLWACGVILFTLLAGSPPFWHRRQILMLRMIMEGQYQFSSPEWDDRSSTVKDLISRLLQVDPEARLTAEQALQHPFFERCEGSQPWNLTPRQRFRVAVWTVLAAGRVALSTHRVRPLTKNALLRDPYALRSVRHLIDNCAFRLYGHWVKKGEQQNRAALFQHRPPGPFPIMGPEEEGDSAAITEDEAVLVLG

Sequence | % activity (266 human kinases [1]; Hck(h) activated) [%] | % activity (266 human kinases [1]; Hck(h)) [%] | % activity (266 human kinases [2]) [%] | % activity (266 human kinases [3]) [%] | % activity (266 human kinases [4]) [%] | % activity (266 human kinases [5]) [%] | % activity (266 human kinases [6]) [%] | % activity (266 human kinases [7]) [%] | % activity (266 human kinases [8]) [%] | % activity (266 human kinases [9]) [%] | % activity (266 human kinases [10]) [%] | % activity (266 human kinases [11]) [%]
HRRIKAWLKKIKALARQLGVAA (mammal) [MMI-0500] | 67 | 78 | 16 | 27 | 96 | 23 | 63 | 1 | 189 | 177 | 25 | 5
YARAAARQARAKALNRQLGVA (mammal) [MMI-0200] | 100 | – | 86 | 96 | 108 | 100 | 88 | 2 | 220 | 164 | 71 | 166
